Laboratory results taken from article PMC10397247.
Values belong to the binder of their own block, whether it stands above or below them.

What was measured:
4H909-AA = target: T1, 4H909-AA; experiment: two-hybrid library CCmax; settings: mean of both orientations;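 also: natural log of median RNA to DNA barcode read ratio; higher means stronger binding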
T1 chain: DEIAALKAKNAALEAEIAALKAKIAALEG

P5-AA-1HAA-R = target: T2, P5-AA-1HAA-R; experiment: two-hybrid library CCmax;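 also: natural log of median RNA to DNA barcode read ratio; higher means stronger binding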
T2 chain: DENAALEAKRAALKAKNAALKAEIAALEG

4H891-AA = target: T3, 4H891-AA; experiment: two-hybrid library CCmax; settings: mean of both orientations;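 also: natural log of median RNA to DNA barcode read ratio; higher means stronger binding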
T3 chain: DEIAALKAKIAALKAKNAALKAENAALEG

4H797-AA = target: T4, 4H797-AA; experiment: two-hybrid library CCmax; settings: mean of both orientations;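 also: natural log of median RNA to DNA barcode read ratio; higher means stronger binding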
T4 chain: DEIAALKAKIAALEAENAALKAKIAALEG

4H930-AA = target: T5, 4H930-AA; experiment: two-hybrid library CCmax; settings: mean of both orientations;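 also: natural log of median RNA to DNA barcode read ratio; higher means stronger binding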
T5 chain: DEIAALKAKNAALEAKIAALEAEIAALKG

4H629-AA = target: T6, 4H629-AA; experiment: two-hybrid library CCmax; settings: mean of both orientations;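 also: natural log of median RNA to DNA barcode read ratio; higher means stronger binding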
T6 chain: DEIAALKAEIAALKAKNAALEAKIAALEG

4H710-AA = target: T7, 4H710-AA; experiment: two-hybrid library CCmax; settings: mean of both orientations
T7 chain: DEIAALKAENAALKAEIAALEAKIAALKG

4H94-AA = target: T8, 4H94-AA; experiment: two-hybrid library CCmax; settings: mean of both orientations
T8 chain: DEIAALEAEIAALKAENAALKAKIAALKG

4H485-AA = target: T9, 4H485-AA; experiment: two-hybrid library CCmax; settings: mean of both orientations
T9 chain: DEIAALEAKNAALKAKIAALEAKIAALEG

4H570-AA = target: T10, 4H570-AA; experiment: two-hybrid library CCmax; settings: mean of both orientations
T10 chain: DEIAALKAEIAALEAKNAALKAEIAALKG

4H458-AA = target: T11, 4H458-AA; experiment: two-hybrid library CCmax; settings: mean of both orientations
T11 chain: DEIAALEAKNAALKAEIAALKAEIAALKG

4H850-AA = target: T12, 4H850-AA; experiment: two-hybrid library CCmax; settings: mean of both orientations
T12 chain: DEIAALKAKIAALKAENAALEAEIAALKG

4H697-AA = target: T13, 4H697-AA; experiment: two-hybrid library CCmax
T13 chain: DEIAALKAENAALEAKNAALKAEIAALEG

4H536-AA = target: T14, 4H536-AA; experiment: two-hybrid library CCmax; settings: mean of both orientations
T14 chain: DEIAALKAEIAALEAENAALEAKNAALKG

4H982-AA = target: T15, 4H982-AA; experiment: two-hybrid library CCmax; settings: mean of both orientations
T15 chain: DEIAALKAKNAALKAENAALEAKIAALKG

4H745-AA = target: T16, 4H745-AA; experiment: two-hybrid library CCmax; settings: mean of both orientations
T16 chain: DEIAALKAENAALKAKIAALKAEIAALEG

4H3865-AA = target: T17, 4H3865-AA; experiment: two-hybrid library CCmax
T17 chain: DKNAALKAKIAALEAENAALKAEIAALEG

4H2673-bH = target: T18, 4H2673-bH; experiment: two-hybrid library CCNG1
T18 chain: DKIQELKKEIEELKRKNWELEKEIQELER

4H170-bH = target: T19, 4H170-bH; experiment: two-hybrid library CCNG1
T19 chain: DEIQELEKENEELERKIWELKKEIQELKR

4H797-bH = target: T20, 4H797-bH; experiment: two-hybrid library CCNG1
T20 chain: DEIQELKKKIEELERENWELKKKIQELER

4H575-bH = target: T21, 4H575-bH; experiment: two-hybrid library CCNG1
T21 chain: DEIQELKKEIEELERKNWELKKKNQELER

4H2702-bH = target: T22, 4H2702-bH; experiment: two-hybrid library CCNG1
T22 chain: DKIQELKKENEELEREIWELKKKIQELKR

4H1158-bH = target: T23, 4H1158-bH; experiment: two-hybrid library CCNG1
T23 chain: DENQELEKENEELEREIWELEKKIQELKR

4H855-bH = target: T24, 4H855-bH; experiment: two-hybrid library CCNG1
T24 chain: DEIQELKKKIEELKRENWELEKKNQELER

4H4073-bH = target: T25, 4H4073-bH; experiment: two-hybrid library CCNG1
T25 chain: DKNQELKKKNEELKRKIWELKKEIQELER

4H112-bH = target: T26, 4H112-bH; experiment: two-hybrid library CCNG1
T26 chain: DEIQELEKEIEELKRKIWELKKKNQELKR

4H2586-bH = target: T27, 4H2586-bH; experiment: two-hybrid library CCNG1
T27 chain: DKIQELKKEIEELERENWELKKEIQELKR

4H457-bH = target: T28, 4H457-bH; experiment: two-hybrid library CCNG1
T28 chain: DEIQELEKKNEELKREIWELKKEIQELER

4H918-bH = target: T29, 4H918-bH; experiment: two-hybrid library CCNG1
T29 chain: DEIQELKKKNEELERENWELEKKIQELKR

4H346-bH = target: T30, 4H346-bH; experiment: two-hybrid library CCNG1
T30 chain: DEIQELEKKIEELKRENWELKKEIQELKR

4H3427-bH = target: T31, 4H3427-bH; experiment: two-hybrid library CCNG1
T31 chain: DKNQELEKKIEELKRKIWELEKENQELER

4H3926-bH = target: T32, 4H3926-bH; experiment: two-hybrid library CCNG1
T32 chain: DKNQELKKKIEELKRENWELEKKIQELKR

4H780-bH = target: T33, 4H780-bH; experiment: two-hybrid library CCNG1
T33 chain: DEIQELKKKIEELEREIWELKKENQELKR

4H754-bH = target: T34, 4H754-bH; experiment: two-hybrid library CCNG1
T34 chain: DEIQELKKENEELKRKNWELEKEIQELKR

4H118-bH = target: T35, 4H118-bH; experiment: two-hybrid library CCNG1
T35 chain: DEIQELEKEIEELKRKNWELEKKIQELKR

4H683-bH = target: T36, 4H683-bH; experiment: two-hybrid library CCNG1
T36 chain: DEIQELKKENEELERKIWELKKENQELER

4H953-bH = target: T37, 4H953-bH; experiment: two-hybrid library CCNG1
T37 chain: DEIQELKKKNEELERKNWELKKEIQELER

4H968-bH = target: T38, 4H968-bH; experiment: two-hybrid library CCNG1
T38 chain: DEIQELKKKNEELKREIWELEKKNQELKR

4H2233-bH = target: T39, 4H2233-bH; experiment: two-hybrid library CCNG1
T39 chain: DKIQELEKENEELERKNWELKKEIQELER

4H2627-bH = target: T40, 4H2627-bH; experiment: two-hybrid library CCNG1
T40 chain: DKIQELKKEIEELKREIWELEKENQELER

4H3112-bH = target: T41, 4H3112-bH; experiment: two-hybrid library CCNG1
T41 chain: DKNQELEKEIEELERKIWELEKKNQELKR

4H1831-bH = target: T42, 4H1831-bH; experiment: two-hybrid library CCNG1
T42 chain: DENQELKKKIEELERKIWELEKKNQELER

4H3010-bH = target: T43, 4H3010-bH; experiment: two-hybrid library CCNG1
T43 chain: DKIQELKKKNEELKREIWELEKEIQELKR

interaction score (4H909-AA): -1.04
interaction score (P5-AA-1HAA-R): -0.395
interaction score (4H891-AA): -1.81
interaction score (4H797-AA): 1.12
interaction score (4H930-AA): -1.43
interaction score (4H629-AA): -1.62
interaction score (4H710-AA): -1.84
interaction score (4H94-AA): 1.56
interaction score (4H485-AA): -1.27
interaction score (4H570-AA): 0.484
interaction score (4H458-AA): -1.15
interaction score (4H850-AA): 1.18
interaction score (4H697-AA): -1.81
interaction score (4H536-AA): -0.909
interaction score (4H982-AA): -0.79
interaction score (4H745-AA): -0.83
interaction score (4H3865-AA): 0.444
B1: 4H3865-AA (peptide)
chain: DKNAALKAKIAALEAENAALKAEIAALEG

interaction score (4H2673-bH): 0.53
interaction score (4H170-bH): -0.736
interaction score (4H797-bH): -0.295
interaction score (4H575-bH): -0.63
interaction score (4H2702-bH): 0.179
interaction score (4H1158-bH): 1.45
interaction score (4H855-bH): -0.0783
interaction score (4H4073-bH): 1.39
interaction score (4H112-bH): 1.65
interaction score (4H2586-bH): 0.807
interaction score (4H457-bH): 1.45
interaction score (4H918-bH): -0.152
interaction score (4H346-bH): 0.154
interaction score (4H3427-bH): 1.48
interaction score (4H3926-bH): 0.23
interaction score (4H780-bH): 0.211
interaction score (4H754-bH): -0.515
interaction score (4H118-bH): 0.444
interaction score (4H683-bH): 0.914
interaction score (4H953-bH): -0.228
interaction score (4H968-bH): 0.0767
interaction score (4H2233-bH): -0.606
interaction score (4H2627-bH): 1.4
interaction score (4H3112-bH): 1.27
interaction score (4H1831-bH): 0.143
interaction score (4H3010-bH): 1.49
B2: 4H112-bH (peptide)
chain: DEIQELEKEIEELKRKIWELKKKNQELKR
